Laboratory results reported in patent US20230192833A1.

Biological target: human VEGFC (Vascular endothelial growth factor C) (human) (UniProt P49767)
Test: cell-based or functional assay

B1: 1E9 antibodies (monoclonal anti-VEGFC antibodies of the 1E9 hybridoma) (antibody, V domains shown)
VH: QAQLRQPGAELVKPGASVKLSCKASGYTFISYWMHWVKQRPGQGLEWIGEINPSNGRTNYNEKFKSKATLTVDRSSSTAYMQLSSLTSEDSAVYYCASTSLFYYAMNYWGQGTSVTVSS
VL: DVVMTQTPLSLTVSLGDQASISCRSSQSLVHSNGNTYLHWYLQKPGQSPKLLIYKVFNRLSGVPDRFSGSGSGTDFTLKISRVEAEDLGVYFCSQNTHVPWTFGGGTKLEIK
In the case of B1, the decrease in proliferation of cancer cells (MTT assay, A498, 786-O, MDA-MB231, 48 h) is reported as 40%.
